# Primed or numbered codes have the meaning given here. *: point of attachment. FITC = O=C1OC2(c3ccc(O)cc3Oc3cc(O)ccc32)c2ccc(NC(=S)*)cc21; Dnp′ = not defined here; CH2Cl = ClC*
# T1: SaPrp (Staphylococcus aureus, UniProt Q2FXS9, N63Q)
# T1 sequence (Q2FXS9 1-106 N63Q): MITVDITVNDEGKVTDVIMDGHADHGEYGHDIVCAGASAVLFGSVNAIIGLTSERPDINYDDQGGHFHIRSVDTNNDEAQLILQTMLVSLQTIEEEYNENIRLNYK
# B1: μ-calpain: literature comparator cysteine protease (protein, UniProt P07384 2-714; P04632 1-268, looked up)
# Calpain-1 catalytic subunit: SEEIITPVYCTGVSAQVQKQRARELGLGRHENAIKYLGQDYEQLRVRCLQSGTLFRDEAFPPVPQSLGYKDLGPNSSKTYGIKWKRPTELLSNPQFIVDGATRTDICQGALGDCWLLAAIASLTLNDTLLHRVVPHGQSFQNGYAGIFHFQLWQFGEWVDVVVDDLLPIKDGKLVFVHSAEGNEFWSALLEKAYAKVNGSYEALSGGSTSEGFEDFTGGVTEWYELRKAPSDLYQIILKALERGSLLGCSIDISSVLDMEAITFKKLVKGHAYSVTGAKQVNYRGQVVSLIRMRNPWGEVEWTGAWSDSSSEWNNVDPYERDQLRVKMEDGEFWMSFRDFMREFTRLEICNLTPDALKSRTIRKWNTTLYEGTWRRGSTAGGCRNYPATFWVNPQFKIRLDETDDPDDYGDRESGCSFVLALMQKHRRRERRFGRDMETIGFAVYEVPPELVGQPAVHLKRDFFLANASRARSEQFINLREVSTRFRLPPGEYVVVPSTFEPNKEGDFVLRFFSEKSAGTVELDDQIQANLPDEQVLSEEEIDENFKALFRQLAGEDMEISVKELRTILNRIISKHKDLRTKGFSLESCRSMVNLMDRDGNGKLGLVEFNILWNRIRNYLSIFRKFDLDKSGSMSAYEMRMAIESAGFKLNKKLYELIITRYSEPDLAVDFDNFVCCLVRLETMFRFFKTLDTDLDGVVTFDLFKWLQLTMFA
# Calpain small subunit 1: MFLVNSFLKGGGGGGGGGGGLGGGLGNVLGGLISGAGGGGGGGGGGGGGGGGGGGGTAMRILGGVISAISEAAAQYNPEPPPPRTHYSNIEANESEEVRQFRRLFAQLAGDDMEVSATELMNILNKVVTRHPDLKTDGFGIDTCRSMVAVMDSDTTGKLGFEEFKYLWNNIKRWQAIYKQFDTDRSGTICSSELPGAFEAAGFHLNEHLYNMIIRRYSDESGNMDFDNFISCLVRLDAMFRAFKSLDKDGTGQIQVNIQEWLQLTMYS
# B2: papain: literature comparator cysteine protease (protein, UniProt P00784 134-345, looked up)
# Papain: IPEYVDWRQKGAVTPVKNQGSCGSCWAFSAVVTIEGIIKIRTGNLNEYSEQELLDCDRRSYGCNGGYPWSALQLVAQYGIHYRNTYPYEGVQRYCRSREKGPYAAKTDGVRQVQPYNEGALLYSIANQPVSVVLEAAGKDFQLYRGGIFVGPCGNKVDHAVAAVGYGPNYILIKNSWGTGWGENGYIRIKRGTGNSYGVCGLYTSSFYPVKN
# Assays:
# SaPrp [1] = target: T1, SaPrp; format: biochemical; details: compound at 100 μM, FITC-conjugated peptide
# SaPrp [2] = target: T1, SaPrp; assay: Michaelis–Menten steady-state kinetics, cleavage of FITC-[…]-Dnp; format: biochemical
# SaPrp [3] = assay: Covalent complex formation with SaPrp, mass spectrometry; format: biochemical, Staphylococcus aureus; details: 2.6-fold molar excess over SaPrp, 1 h, room temperature
# [4] = other cysteine proteases, means and standard deviations; cited from earlier work
molecule,measurement,setting,value
"COC([CH2][Hg+])CNC(=O)c1ccccc1OCC(=O)O.[OH-] (stereo not drawn) [Compound 4, Mersalyl Acid]",Inhibition of Prp at 100 μM,SaPrp [1],Prp could not cleave the peptide
FITC-KLNLQFFASKK-Dnp ({FITC}-KLNLQFFASKK-{Dnp′}) [Compound 1],Vmax,"SaPrp [2]; FITC-KLNLQFFASKK-Dnp substrate 0.2–20 μM, 48.2 nM SaPrp (monomer)",11 ± 4.0 nM/s
same,kcat,"SaPrp [2]; FITC-KLNLQFFASKK-Dnp substrate, ET constrained to 42.8 nM active sites",0.26 ± 0.05 s^–1
acetyl-KLNLQFF-chloromethylketone (Ac-KLNLQFF-CH2Cl; SMILES CC(=O)N[C@@H](CCCCN)C(=O)N[C@@H](CC(C)C)C(=O)N[C@@H](CC(N)=O)C(=O)N[C@@H](CC(C)C)C(=O)N[C@@H](CCC(N)=O)C(=O)N[C@@H](Cc1ccccc1)C(=O)N[C@@H](Cc1ccccc1)C(=O)CCl) [Ac-KLNLQFF-CMK],Formation of the covalent complex with SaPrp,SaPrp [3],> 95%
B1,kcat,[4],0.015 ± 0.002 s^–1
B2,kcat,[4],0.0162 ± 0.000135 s^–1

# From paper PMC9261936 (Biochemistry, 2022)
